Experimental data: patent US20100015637A1 (AbbVie / Abbott, published 2010)
One block for each molecule: values may come before it.

Key:
[1] = target: human PlGF-1 comprising amino acids 1-137 produced in human embryonic kidney cells (human) (UniProt P49763); test: Format 3 Quantikine ELISA, capture MAb264, detection Pb264; sFlt-1 77 pmol/L (ratio 2.5)
[2] = target: human PlGF-1 comprising amino acids 1-137 produced in human embryonic kidney cells (human) (UniProt P49763); test: Format 1 …, capture 2-826-335, detection 1-255-713; sFlt-1 0 pmol/L (ratio 0)
[3] = target: human PlGF-1 comprising amino acids 1-137 produced in human embryonic kidney cells (human) (UniProt P49763); test: Format 1 …, capture 2-826-335, detection 1-255-713; sFlt-1 1227 pmol/L (ratio 40)
[4] = target: human PlGF-1 comprising amino acids 1-137 produced in human embryonic kidney cells (human) (UniProt P49763); test: Format 2 …, capture MAb264, detection Pb264; sFlt-1 920 pmol/L (ratio 30)
[5] = target: T1, human PlGF-1 comprising amino acids 1-137 produced in human embryonic kidney cells (human, UniProt P49763 19-221); test: … sandwich, capture MAb255, detection MAb826; antigen 250 pg/mL
T1 construct: Mature human PlGF-1 with 6xHis tag; also called HEK (1-137); full length HEK human PlGF-1 (1-137)
T1 sequence: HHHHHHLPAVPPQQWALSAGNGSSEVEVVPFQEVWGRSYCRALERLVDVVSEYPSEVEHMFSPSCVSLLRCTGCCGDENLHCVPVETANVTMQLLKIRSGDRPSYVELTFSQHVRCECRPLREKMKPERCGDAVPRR
In short: (§1)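 In a sandwich immunoassay, human PlGF-1 antigen preparations, including recombinant forms expressed in CHO cells, were tested at 0 to 1500 pg/mL. Magnetic microparticles carried a monoclonal anti-human PlGF-1 capture antibody, attached by passive coating and EDAC cross-linking, and a second monoclonal anti-human PlGF-1 antibody labeled with acridinium ester served for detection. At each antigen level, the chemiluminescent signal was read in relative light units (RLU).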

[6] = target: T2, human PlGF-1 fragment (comprising amino acids 17-131) produced in human embryonic kidney cells (human, UniProt P49763 35-221); test: as above
T2 sequence: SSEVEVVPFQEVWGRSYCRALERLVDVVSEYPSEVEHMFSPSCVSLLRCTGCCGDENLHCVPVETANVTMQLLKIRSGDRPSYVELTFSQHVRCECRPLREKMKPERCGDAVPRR
In short: as §1

[7] = target: T3, CHO human PlGF-1 fragment (comprising amino acids 17-131; ATCC PTA-8540) (human, UniProt P49763 35-221); test: as above
T3 sequence: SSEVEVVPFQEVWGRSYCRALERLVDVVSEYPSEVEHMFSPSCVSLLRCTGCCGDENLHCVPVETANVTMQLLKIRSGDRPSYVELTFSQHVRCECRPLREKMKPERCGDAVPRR
In short: as §1

[8] = target: T4, CHO human PlGF-1 comprising amino acids 1-137 (human PlGF-1-His (1-131), CHO 6305) (human, UniProt P49763 19-221, N-glycans at N21 (completely glycosylated) and N89 (partially glycosylated)); test: as above
T4 construct: Mature human PlGF-1 with 6xHis tag (137 amino acids); also called CHO (1-137)
T4 sequence: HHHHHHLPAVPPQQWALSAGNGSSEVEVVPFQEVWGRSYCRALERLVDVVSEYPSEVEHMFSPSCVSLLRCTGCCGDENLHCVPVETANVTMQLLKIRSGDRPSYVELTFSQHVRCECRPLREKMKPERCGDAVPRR
In short: as §1

[9] = target: recombinant human PlGF-1 (comprising amino acids 1-131) expressed in E. coli (R&D Systems) (human) (UniProt P49763); test: … sandwich, capture MAb255, detection MAb826; antigen 15 pg/mL
[10] = target: T1, human PlGF-1 comprising amino acids …; test: … sandwich, capture MAb255, detection pAb264; antigen 60 pg/mL
[11] = target: T2, human PlGF-1 fragment (comprising amino …); test: as above
[12] = target: T3, CHO human PlGF-1 fragment (comprising …); test: as above
[13] = target: T4, CHO human PlGF-1 comprising amino acids …; test: as above
[14] = target: T1, human PlGF-1 comprising amino acids …; test: … sandwich, capture MAb255, detection pAb264; antigen 0 pg/mL (blank)
[15] = target: T2, human PlGF-1 fragment (comprising amino …); test: as above
[16] = target: T3, CHO human PlGF-1 fragment (comprising …); test: as above
[17] = target: T4, CHO human PlGF-1 comprising amino acids …; test: as above
[18] = target: recombinant human PlGF-1 (comprising amino acids 1-131) expressed in E. coli (R&D Systems) (human) (UniProt P49763); test: … sandwich, capture MAb255, detection MAb826; antigen 0 pg/mL (blank)
[19] = target: recombinant human PlGF-1 (comprising amino acids 1-131) expressed in E. coli (R&D Systems) (human) (UniProt P49763); test: … sandwich, capture MAb255, detection pAb264; antigen 0 pg/mL (blank)

% Inhibition [1]: 18.3%
PlGF-1 Measured [1]: 707 pg/mL
% Inhibition [2]: 0%
PlGF-1 Measured [2]: 1020 pg/mL
% Inhibition [3]: 91.9%
PlGF-1 Measured [3]: 83.2 pg/mL
% Inhibition [4]: 91.3%
PlGF-1 Measured [4]: 68.2 pg/mL
Molecule: native sFlt-1, isolated from human placental tissue (from UniProt P17948 27-687) (receptor)

RLU [5]: 367000 RLU
RLU [6]: 207000 RLU
RLU [7]: 144000 RLU
RLU [8]: 153000 RLU
RLU [9]: 22700 RLU
RLU [10]: 165000 RLU
RLU [11]: 107000 RLU
RLU [12]: 81200 RLU
RLU [13]: 71600 RLU
RLU [14]: 14200 RLU
RLU [15]: 14200 RLU
RLU [16]: 14400 RLU
RLU [17]: 14500 RLU
RLU [18]: 6110 RLU
RLU [19]: 14300 RLU
B1: monoclonal antibody 1-255-713 (produced by murine hybridoma cell line 1-255-713, ATCC PTA-8536) (antibody, mouse IgG2a, V domains shown)
VH: QVHLQQSGAELMKPGASVKISCKATGYTFSSYWIEWVKQRPGHGLEWIGEILPGSVSNNFNEKFKDKATLTADPSSNTAYIQVSSLTSEDSAVYYCARSTGFYYGGNYFDHWGQGTTLAVSS
VL: DVVMTQTPLSLPVSPGDQASISCRSSQSLVHSNGHTYLHWYLQKPGQSPKLLIYKVSNRFSGVPDRVSGSGSGTDFTLKISRVEAEDLGVYFCSQSTHVPPTFGGGTKLEIKR
notes: also called MAb255
